Article PMC6376876

Tested on: CC(=O)Oc1ccc([N+](=O)[O-])cc1
Experiment: purified protein

Substance: LsALDH16 (Loktanella sp. 3ANDIMAR09)
- Km: 1740 µM
- Vmax: 7.9 µmol/min/mg
- kcat: 10.6 ± 1.6 s⁻¹
- kcat/Km: 6000 ± 2000 M⁻¹ s⁻¹
